Experimental data from patent publication US20160046707A1 (EISAI R AND D MANAGEMENT, published 2016).
Changes are numbered by the printed parent chain.

B1: humanized anti-human CCL20 antibody 36LK3/42HKK1 (antibody, human IgG1, kappa, V domains shown)
VH: QVQLVQSGAEVKKPGASVKVSCKASGYTFTSYWMHWVRQAPGQGLEWMGLIDPSDKYTNYNQKFKGRVTMTRDTSTSTVYMELSSLRSEDTAVYYCARGNYGVDYGMDYWGQGTLVTVSS
VL: DIQMTQSPSSLSASVGDRVTITCGASENIYGALNWYQRKPGKAPKLLIYGATNLADGVPSRFSGSGSGRDYTLTISSLQPEDFATYYCQNVLITPYTFGQGTKLEIKR
B2: humanized anti-human CCL20 antibody 36LK3/36HC3 (antibody, human IgG1, kappa, V domains shown)
VH: QVQLVQSGAEVKKPGASVKVSCKASGYTFTNYWMHWVKQAPGQGLEWIGVIDPSDSYTTYNQKFKGKATMTRDTSTSTVYMELSSLRSEDTAVYYCTRGNYGVDYAMDYWGQGTSVTVSS
VL: B1 VL
B3: humanized anti-human CCL20 antibody 36LK3/42HKK2 (antibody, human IgG1, kappa, V domains shown)
VH: B1 VH with M70L, R72V, A97T
VL: B1 VL
B4: humanized anti-human CCL20 antibody 36LK3/36HKK3 (antibody, human IgG1, kappa, V domains shown)
VH: B2 VH with K38R, I48M, M70L, R72V, V79A, S115L
VL: B1 VL
B5: humanized anti-human CCL20 antibody 36LK3/42HKK3 (antibody, human IgG1, kappa, V domains shown)
VH: B1 VH with R67K, V68A, M70L, R72V, V79A, A97T
VL: B1 VL
B6: humanized anti-human CCL20 antibody 36LC3/36HKK3 (antibody, human IgG1, kappa, V domains shown)
VH: B2 VH with K38R, I48M, M70L, R72V, V79A, S115L
VL: B1 VL with G24R, R38Q, D70Q, T72S, Q100G
B7: 36LC3/36HC3 (antibody, human IgG1, kappa, V domains shown)
VH: B2 VH
VL: B1 VL with G24R, R38Q, D70Q, T72S, Q100G

Target: T1, recombinant human CCL20 (R&D Systems, #360-MP-025/CF) (human, UniProt P78556 27-96)
Assay: cell-based or functional assay

T1 sequence (P78556 other isoform, or with tags, fused parts or gaps limits assumed): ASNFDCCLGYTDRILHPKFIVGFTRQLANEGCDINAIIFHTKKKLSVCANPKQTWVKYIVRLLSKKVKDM

| Binder | IC50 of chemotaxis inhibition | IC50 of chemotaxis inhibition (block of heavy chains 36HKK1 to 36HKK3) | IC50 of chemotaxis inhibition (block of heavy chains 36HKK3, 36HC2, 36HC3) |
| --- | --- | --- | --- |
| B1 | 1.36 nM | – | – |
| B2 | 1.13 nM | – | – |
| B3 | 1.66 nM | – | – |
| B4 | – | 1.31 nM | 1.21 nM |
| B5 | 1.47 nM | – | – |
| B6 | 1.26 nM | – | – |
| B7 | 1.33 nM | – | – |

Target: T1, recombinant human CCL20 (R&D Systems, …)
Assay: cell-based or functional assay
Remark: another data set of the same source

| Binder | IC90 of chemotaxis inhibition |
| --- | --- |
| B1 | 4.86 nM |
| B2 | 4.6 nM |
| B3 | 6.54 nM |
| B5 | 5.65 nM |
| B6 | 4.33 nM |
| B7 | 6.34 nM |

Target: T1, recombinant human CCL20 (R&D Systems, …)
Assay: cell-based or functional assay
Remark: another data set of the same source

| Binder | IC95 of chemotaxis inhibition |
| --- | --- |
| B1 | 9.02 nM |
| B2 | 8.38 nM |
| B3 | 15.3 nM |
| B5 | 10.8 nM |
| B6 | 9.75 nM |
